Measured values taken from patent publication US20240010741A1.

Experiments:
recombinant CD40 protein = recombinant CD40 protein (UniProt P25942); assay: CD40L competition ELISA: antibody (5 µg/ml) preincubated with recombinant CD40 (1.7 µg/ml), complex added to coated CD40L, detected with anti-human F(ab)2-peroxidase; a high signal means no competition with CD40L (antibody and CD40L bound to CD40 together)
cell-expressed CD40 = cell-expressed CD40 (UniProt P25942); assay: cell binding on HEK-Blue-CD40L cells, Alexa-Fluor-488 anti-human IgG, high content imaging
cell-expressed CD40, sequence (P25942 21-277 limits assumed): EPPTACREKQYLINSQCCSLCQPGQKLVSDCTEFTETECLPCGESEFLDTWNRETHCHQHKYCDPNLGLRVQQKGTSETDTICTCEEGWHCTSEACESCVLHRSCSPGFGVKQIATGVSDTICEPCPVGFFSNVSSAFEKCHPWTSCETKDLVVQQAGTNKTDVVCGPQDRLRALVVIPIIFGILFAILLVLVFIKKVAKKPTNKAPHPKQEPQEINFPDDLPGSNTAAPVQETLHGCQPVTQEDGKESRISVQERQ

recombinant CD40 protein, sequence (P25942 21-193 limits assumed): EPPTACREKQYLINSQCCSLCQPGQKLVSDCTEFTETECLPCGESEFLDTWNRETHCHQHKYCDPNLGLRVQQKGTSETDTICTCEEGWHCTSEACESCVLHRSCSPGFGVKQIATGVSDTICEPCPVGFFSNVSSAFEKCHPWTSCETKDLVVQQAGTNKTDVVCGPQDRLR

Substance: CP-870,893 IgG1-LALA (antibody)
- OD at 450 nm (recombinant CD40 protein): 2.54 OD
- EC50 (cell-expressed CD40): 0.0145 µg/mL
